Reference: PMC6179936 (Journal of immunology (Baltimore, Md. : 1950), 2018)
Where no end group is shown, it is not given here. The star is where a group is joined. X1 = 2,3‑bis(palmitoyloxy)‑(2RS)‑propyl, CCCCCCCCCCCCCCCC(=O)OCC(C*)OC(=O)CCCCCCCCCCCCCCC; Palmitoyl = CCCCCCCCCCCCCCCC(=O)*

Molecular target: T1, Recombinant human SAA1 made in human embryonic kidney (HEK) cells (human, UniProt P0DJI8 19-122)
T1 sequence (looked up): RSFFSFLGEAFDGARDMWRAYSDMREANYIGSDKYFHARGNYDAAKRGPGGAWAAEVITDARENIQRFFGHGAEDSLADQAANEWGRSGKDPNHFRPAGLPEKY
Test: retention on a 3 kDa cutoff centrifugal filter, read by TNFα from J774 cells

B1: Pam3CSK4, synthetic triacylated lipopeptide (peptide)
peptide: Palmitoyl-C(X1)SKKKK
binding result: binds
